Measurements as given in the Human Domainome abundance scans (Beltran et al. 2025).
± gives the uncertainty stated by the source.

B1: Pituitary-specific positive transcription factor 1, residues 130 to 198; numbered along this chain, P28069 (parent)
chain: RELEKFANEFKVRRIKLGYTQTNVGEALAAVHGSEFSQTTICRFENLQLSFKNACKLKAILSKWLEEAE
B2: POU domain, class 4, transcription factor 1, residues 266 to 347; numbered along this chain, Q01851 (parent)
chain: RELEAFAERFKQRRIKLGVTQADVGSALANLKIPGVGSLSQSTICRFESLTLSHNNMIALKPILQAWLEEAEGAQREKMNKP

Variants of: B1
Test: abundance fitness (aPCA) (normalised: wild type 0, dead -1); higher = more abundant; growth selection in yeast, the domain comes from the species named
Settings: Homo sapiens

Variant | abundance fitness
L65K | -0.75 ± 0.11
L65F | -0.884 ± 0.25
L65P | -0.752 ± 0.2
L65E | -0.779 ± 0.16
L65S | -0.636 ± 0.093
L65Y | -0.833 ± 0.18
L65N | -0.955 ± 0.21
L65T | -0.935 ± 0.18
L65R | -0.748 ± 0.11
L65V | -0.38 ± 0.059
L65M | -0.374 ± 0.075
L65I | 0.105 ± 0.2
L65A | -0.772 ± 0.1
L65G | -0.791 ± 0.14
L65H | -0.887 ± 0.32
L65D | -0.85 ± 0.19
L65W | -0.719 ± 0.12
K63P | -0.303 ± 0.082
K63R | -0.152 ± 0.055
K63Y | -0.508 ± 0.16
K63V | -0.155 ± 0.072
K63I | -0.326 ± 0.094
K63L | -0.3 ± 0.06
K63M | -0.155 ± 0.13
K63T | 0.022 ± 0.047

Variant | abundance fitness
K63W | -0.589 ± 0.076
K63Q | -0.157 ± 0.11
K63S | -0.069 ± 0.046
E67H | -0.34 ± 0.23
E67Y | -0.36 ± 0.09
E67D | 0.002 ± 0.069
E67L | -0.594 ± 0.097
E67T | -0.371 ± 0.097
E67S | -0.088 ± 0.056
E67R | -0.172 ± 0.058
E67K | -0.18 ± 0.11
E67C | -0.301 ± 0.073
E67P | -0.721 ± 0.26
E67N | -0.134 ± 0.099
E67W | -0.203 ± 0.1
E67Q | -0.125 ± 0.11
E67V | -0.39 ± 0.073
E67F | -0.49 ± 0.14
E67A | -0.214 ± 0.071
W64S | -0.722 ± 0.2
W64A | -0.496 ± 0.18
W64V | -0.966 ± 0.25
W64L | -0.795 ± 0.27
W64R | -0.79 ± 0.14
W64T | -0.684 ± 0.11

Variant | abundance fitness
W64Q | -0.643 ± 0.14
W64K | -0.461 ± 0.16
W64N | -0.475 ± 0.28
W64C | -0.164 ± 0.15
W64F | -0.398 ± 0.11
W64G | -0.568 ± 0.077
A68C | -0.752 ± 0.22
A68D | -0.78 ± 0.34
A68V | -0.071 ± 0.071
A68T | -0.05 ± 0.13
A68H | -0.271 ± 0.1
A68G | -0.664 ± 0.15
A68N | -0.24 ± 0.077
A68K | 0.047 ± 0.15
A68L | -0.778 ± 0.17
A68E | -0.003 ± 0.063
A68I | 0.128 ± 0.45
A68F | -0.747 ± 0.23
A68S | -0.518 ± 0.15
A68M | -0.061 ± 0.084
A68R | -0.232 ± 0.077
E69L | -0.719 ± 0.28
E69V | -0.874 ± 0.29
E69D | -0.28 ± 0.16
E69P | -0.433 ± 0.23

Variant | abundance fitness
E69C | -0.537 ± 0.11
E69F | -0.616 ± 0.32
E69Q | -0.635 ± 0.22
E69R | -0.706 ± 0.13
E69S | -0.4 ± 0.14
E69A | -0.436 ± 0.12
E66T | -0.115 ± 0.093
E66S | -0.335 ± 0.078
E66R | -0.241 ± 0.051
E66D | -0.037 ± 0.085
E66K | -0.296 ± 0.099
E66H | -0.334 ± 0.29
E66Y | -0.304 ± 0.12
E66A | -0.054 ± 0.069
E66M | -0.332 ± 0.096
E66W | -0.562 ± 0.17
E66F | -0.242 ± 0.11
E66V | -0.123 ± 0.054
E66N | -0.373 ± 0.14
E66G | -0.373 ± 0.07
E66Q | -0.193 ± 0.086
E66C | -0.108 ± 0.077
E66I | -0.281 ± 0.079

Variants of: B2
Test: as above
Settings: Homo sapiens

Variant | abundance fitness
A59E | -0.026 ± 0.044
A59S | -0.016 ± 0.05
A59G | -0.103 ± 0.037
M57G | -0.449 ± 0.04
M57V | -0.273 ± 0.041
M57I | -0.16 ± 0.099
M57L | -0.031 ± 0.037
M57E | -0.706 ± 0.085
M57P | -0.606 ± 0.11
N56D | -0.018 ± 0.075
N56L | 0.058 ± 0.042
N56G | -0.023 ± 0.033
L52S | -0.557 ± 0.067
N80F | -0.043 ± 0.065
N80E | 0.078 ± 0.053
N80G | -0.003 ± 0.032
S26T | -0.095 ± 0.06
S26H | -0.005 ± 0.13
R1G | -0.05 ± 0.023
R1C | -0.053 ± 0.038
L60S | -0.253 ± 0.23
L60A | -0.344 ± 0.24
L60V | -0.029 ± 0.087

Variant | abundance fitness
L60H | -0.392 ± 0.29
G37L | -0.121 ± 0.03
G37Q | -0.121 ± 0.042
G37S | -0.047 ± 0.032
G37P | -0.016 ± 0.04
G37I | -0.116 ± 0.063
L39C | -0.096 ± 0.071
L39I | 0.042 ± 0.13
A22M | -0.237 ± 0.16
P82V | -0.053 ± 0.095
P62T | -0.192 ± 0.07
P62S | -0.243 ± 0.069
P62K | -0.243 ± 0.077
P62I | -0.816 ± 0.25
P62M | -0.687 ± 0.1
P62F | -0.518 ± 0.11
H54I | 0.091 ± 0.1
H54W | -0.014 ± 0.04
H54C | -0.089 ± 0.059
H54Y | 0.057 ± 0.088
H54T | 0.08 ± 0.052
T20A | -0.052 ± 0.14
T20N | -0.261 ± 0.44

Variant | abundance fitness
T20C | 0.008 ± 0.36
E70R | -0.046 ± 0.022
E70C | -0.125 ± 0.037
E70L | -0.18 ± 0.029
E70M | -0.1 ± 0.032
G73T | 0.063 ± 0.069
G73W | -0.205 ± 0.067
G73D | -0.105 ± 0.11
G73C | -0.013 ± 0.075
T43C | -0.101 ± 0.072
T43R | -0.483 ± 0.06
T43L | 0.053 ± 0.056
T43E | -0.187 ± 0.072
T43M | 0.037 ± 0.076
A27Y | -0.041 ± 0.19
A27F | -0.284 ± 0.16
A27S | -0.023 ± 0.058
A27N | -0.071 ± 0.12
E4P | -0.361 ± 0.078
E4M | 0.04 ± 0.064
E4I | 0.107 ± 0.08
G18K | -0.167 ± 0.21
R9Q | -0.043 ± 0.1
